{"source": "patent US20250206834A1", "about": "(published 2025)", "binders": {"B1": {"name": "VV02-1LP-263 huNb_1_3 (Fc fusion)", "VHH": "EVQLLESGGGLVQPGGSLRLSCAASGFTFSSSAMSWARQTPGKGFEWVSGIYSGGSTYYTESVKDRFTISRDNSKNTVYLQMNSLKPEDTAVYYCATWGTLRFGVWAEYDHWGQGTQVTVSS"}, "B2": {"name": "IMMU130-263-1-3 (bispecific antibody)", "heavy (part 1 of 2)": "EVQLVESGGGVVQPGRSLRLSCSASGFDFTTYWMSWVRQAPGKGLEWIGEIHPDSSTINYAPSLKDRFTISRDNAKNTLFLQMDSLRPEDTGVYFCASLYFGFPWFAYWGQGTPVTVSS", "heavy (part 2 of 2)": "GGGGSGGGGSGGGGSGGGGSEVQLLESGGGLVQPGGSLRLSCAASGFTFSSSAMSWARQTPGKGFEWVSGIYSGGSTYYTESVKDRFTISRDNSKNTVYLQMNSLKPEDTAVYYCATWGTLRFGVWAEYDHWGQGTQVTVSS", "light": "DIQLTQSPSSLSASVGDRVTITCKASQDVGTSVAWYQQKPGKAPKLLIYWTSTRHTGVPSRFSGSGSGTDFTFTISSLQPEDIATYYCQQYSLYRSFGQGTKVEIK"}, "B3": {"name": "Labetuzumab (antibody, V domains shown)", "VH": "EVQLVESGGGVVQPGRSLRLSCSASGFDFTTYWMSWVRQAPGKGLEWIGEIHPDSSTINYAPSLKDRFTISRDNAKNTLFLQMDSLRPEDTGVYFCASLYFGFPWFAYWGQGTPVTVSS", "VL": "DIQLTQSPSSLSASVGDRVTITCKASQDVGTSVAWYQQKPGKAPKLLIYWTSTRHTGVPSRFSGSGSGTDFTFTISSLQPEDIATYYCQQYSLYRSFGQGTKVEIK"}, "B4": {"name": "IMMU130-263-1-3_1 (bispecific antibody, V domains shown)", "VH": "EVQLVESGGGVVQPGRSLRLSCSASGFDFTTYWMSWVRQAPGKGLEWIGEIHPDSSTINYAPSLKDRFTISRDNAKNTLFLQMDSLRPEDTGVYFCASLYFGFPWFAYWGQGTPVTVSS", "VL": "DIQLTQSPSSLSASVGDRVTITCKASQDVGTSVAWYQQKPGKAPKLLIYWTSTRHTGVPSRFSGSGSGTDFTFTISSLQPEDIATYYCQQYSLYRSFGQGTKVEIK", "VHH": "EVQLVESGGGLVQPGGSLRLSCAASGFTFSSSAMSWARQAPGKGFEWVSGIYSGGSTYYTESVKDRFTISRDNSKNTVYLQMNSLKPEDTAVYYCATWGTLRFGVWAEYDHWGQGTQVTVSS"}, "B5": {"name": "optimized bispecific antibody with 263 huNb-1-3_2 (bispecific antibody)", "heavy (part 1 of 2)": "EVQLVESGGGVVQPGRSLRLSCSASGFDFTTYWMSWVRQAPGKGLEWIGEIHPDSSTINYAPSLKDRFTISRDNAKNTLFLQMDSLRPEDTGVYFCASLYFGFPWFAYWGQGTPVTVSS", "heavy (part 2 of 2)": "GGGGSGGGGSGGGGSGGGGSEVQLVESGGGLVQPGGSLRLSCAASGFTFSSSAMSWARQAPGKGFEWVSGIYSGGSTYYTESVKDRFTISRDNAKNTVYLQMNSLKPEDTAVYYCATWGTLRFGVWAEYDHWGQGTLVTVSS", "light": "DIQLTQSPSSLSASVGDRVTITCKASQDVGTSVAWYQQKPGKAPKLLIYWTSTRHTGVPSRFSGSGSGTDFTFTISSLQPEDIATYYCQQYSLYRSFGQGTKVEIK"}, "B6": {"name": "VV02-1SP (1)-73 huNb_1_3 (Fc fusion)", "VHH": "EVDLVESGGGLVQPGGSLRLSCAVSGFTFSSSAMSWARQAPGKEFEWVSSIYSSGKTYYVESVKGRFTISRDNAKNTVYLQMSSLRPEDTAVYYCATWKTLRVGVWDESDYWGQGTLVTVSS"}}, "key": {"[1]": {"target": "T1, human 4-1BB (human, UniProt Q07011 24-255)", "T1 sequence (Q07011 24-255)": "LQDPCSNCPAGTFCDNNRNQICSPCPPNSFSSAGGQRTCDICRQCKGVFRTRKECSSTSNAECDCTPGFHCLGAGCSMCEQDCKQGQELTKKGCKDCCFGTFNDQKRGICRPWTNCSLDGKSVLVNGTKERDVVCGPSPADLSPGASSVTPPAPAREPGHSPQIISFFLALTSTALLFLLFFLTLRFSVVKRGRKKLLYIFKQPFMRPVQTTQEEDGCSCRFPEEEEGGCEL", "assay": "FACS cell binding"}, "[2]": {"target": "T1, human 4-1BB", "assay": "FACS cell binding; plot key prints IMMU130-263-1-3"}, "[3]": {"target": "T1, human 4-1BB", "assay": "FACS cell binding", "remark": "listed apart in the source"}, "[4]": {"target": "T2, human CEACAM5 on cells (human, UniProt P06731 35-685)", "T2 chain": "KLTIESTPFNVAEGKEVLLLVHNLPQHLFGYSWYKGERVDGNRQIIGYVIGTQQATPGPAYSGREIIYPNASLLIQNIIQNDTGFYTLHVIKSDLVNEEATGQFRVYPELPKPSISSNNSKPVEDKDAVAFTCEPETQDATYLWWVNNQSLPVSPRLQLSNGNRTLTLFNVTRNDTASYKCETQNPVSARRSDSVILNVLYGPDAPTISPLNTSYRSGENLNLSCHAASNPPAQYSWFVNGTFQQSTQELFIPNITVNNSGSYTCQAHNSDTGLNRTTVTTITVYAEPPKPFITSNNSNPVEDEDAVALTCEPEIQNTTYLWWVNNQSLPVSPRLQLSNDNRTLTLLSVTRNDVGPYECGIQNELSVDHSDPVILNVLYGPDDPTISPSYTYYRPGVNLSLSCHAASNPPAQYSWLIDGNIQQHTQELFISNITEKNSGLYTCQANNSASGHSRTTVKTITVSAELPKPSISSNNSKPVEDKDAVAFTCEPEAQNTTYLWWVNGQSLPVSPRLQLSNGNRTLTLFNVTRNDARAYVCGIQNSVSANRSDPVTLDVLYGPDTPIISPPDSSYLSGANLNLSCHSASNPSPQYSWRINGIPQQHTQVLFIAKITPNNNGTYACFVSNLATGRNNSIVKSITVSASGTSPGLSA", "assay": "FACS cell binding; MKN-45 cells"}, "[5]": {"target": "T2, human CEACAM5 on cells", "assay": "FACS cell binding; MKN-45 cells"}}, "note": "Like-named read-outs stand apart in the source and are kept apart here."}
{"binder": "B1", "values": [{"measurement": "EC50", "setting": "[1]", "result": 0.53, "unit": "nM"}]}
{"binder": "B2", "values": [{"measurement": "EC50", "setting": "[2]", "result": 1.23, "unit": "nM"}, {"measurement": "EC50", "setting": "[3]", "result": 0.58, "unit": "nM"}, {"measurement": "EC50", "setting": "[4]", "result": 8.47, "unit": "nM"}, {"measurement": "EC50", "setting": "[5]", "result": 5.38, "unit": "nM"}]}
{"binder": "B3", "values": [{"measurement": "EC50", "setting": "[4]", "result": 5.31, "unit": "nM"}, {"measurement": "EC50", "setting": "[5]", "result": 3.48, "unit": "nM"}]}
{"binder": "B4", "values": [{"measurement": "EC50", "setting": "[4]", "result": 7.34, "unit": "nM"}]}
{"binder": "B5", "values": [{"measurement": "EC50", "setting": "[4]", "result": 7.75, "unit": "nM"}, {"measurement": "EC50", "setting": "[1]", "result": 1.2, "unit": "nM"}]}
{"binder": "B6", "values": [{"measurement": "EC50", "setting": "[3]", "result": 0.37, "unit": "nM"}]}
